The data set is described as follows: protein stability index of a GFP-peptide fusion (yeast GPS) (PSI 1-4); higher = more stable; sorted into four equal gates, so the index is relative within each strain. The procedure, abridged:
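For each peptide, the protein stability index sums the read frequency in every gate after multiplying it by the gate number. Read frequencies came from plasmids that were PCR-amplified from each gate and Illumina-sequenced, with reads assigned to strains by barcodes. The gates were four equal bins of GFP/Cherry fluorescence ratio applied to mid-log yeast in leucine-free medium carrying a pooled library of tiled 17-residue yeast protein peptides fused downstream of GFP on a Cherry-expressing plasmid.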

± gives the uncertainty stated by the source.

Consider ANKEKKKAEKAARKAEK [RPL24A], for which the protein stability index turned out to be 3.27 ± 0.059 (doa10∆), 3.33 ± 0.065 (pdr5∆), 3.38 ± 0.036 (san1∆) and 3.48 ± 0.055 (ubr1∆).
For QQQQQQQVPPLPDELTL [DLS1], the protein stability index by setting is: (doa10∆) 2.63 ± 0.035; (pdr5∆) 2.72 ± 0.038; (san1∆) 2.727 ± 0.027; (ubr1∆) 2.689 ± 0.025.
As for ANARDFGEWAGMTKSNI [BRR2], the protein stability index runs as follows: (doa10∆) 2.28 ± 0.12; (pdr5∆) 2.82 ± 0.14; (san1∆) 1.55 ± 0.12; (ubr1∆) 2.37 ± 0.079.
AFRTIESKSDDNSATSY [RRI1]: the protein stability index reads like this: (doa10∆) 3.06 ± 0.079; (pdr5∆) 3.26 ± 0.079; (san1∆) 3.15 ± 0.053; (ubr1∆) 3.34 ± 0.091.
Consider DEEENGSSDEDLKSLNV [SSN2], for which the protein stability index reads like this: (doa10∆) 3.24 ± 0.11; (pdr5∆) 3.54 ± 0.1; (san1∆) 3.35 ± 0.057; (ubr1∆) 3.23 ± 0.093.
The like results for QDEVNKGPAIDELSSKE [NNF1] were, in that order, 3.23 ± 0.061, 3.36 ± 0.081, 3.34 ± 0.077 and 3.24 ± 0.057.
Take RYDSNSGGEREIQRTML [RPT2]: the protein stability index is 3.43 ± 0.12 (doa10∆), 3.62 ± 0.096 (pdr5∆), 3.39 ± 0.12 (san1∆) and 3.38 ± 0.1 (ubr1∆).
Regarding NKKDKKKEEEEQLSEED [RPN1], the protein stability index amounted to 3.55 ± 0.21 (doa10∆), 3.76 ± 0.23 (pdr5∆), 3.28 ± 0.13 (san1∆) and 3.36 ± 0.15 (ubr1∆).
Take KNKSGKIFVETKFSKLI [FAS1]: the protein stability index reads like this: (doa10∆) 2.33 ± 0.072; (pdr5∆) 2.69 ± 0.076; (san1∆) 2.3 ± 0.16; (ubr1∆) 1.84 ± 0.077.
As to TSDGALSVMCGCGTVKR [RPR2], the protein stability index is 2.43 ± 0.13 (doa10∆), 2.67 ± 0.1 (pdr5∆), 1.93 ± 0.14 (san1∆) and 1.78 ± 0.13 (ubr1∆).
For HCEDKDYKTAFSYFFES [RPN6] the same measures were 2.77 ± 0.081, 2.83 ± 0.071, 2.53 ± 0.076 and 3.02 ± 0.055.
Regarding VSSAKFSGKYLKYLTKK [RPL22B], the protein stability index is, setting by setting: (doa10∆) 2.82 ± 0.25; (pdr5∆) 2.52 ± 0.2; (san1∆) 2.59 ± 0.12; (ubr1∆) 2.66 ± 0.18.
Consider FLLHNSEIIDTNTSKQF [SRB8], for which the protein stability index came out at 2.83 ± 0.086 (doa10∆), 3.06 ± 0.069 (pdr5∆), 2.85 ± 0.055 (san1∆) and 2.81 ± 0.044 (ubr1∆).
As for TEDIREGDQAEVIFSFE [YMR129W/POM152], the protein stability index by setting is: (doa10∆) 3.47 ± 0.087; (pdr5∆) 3.39 ± 0.072; (san1∆) 3.19 ± 0.066; (ubr1∆) 3.44 ± 0.071.
Regarding SSDAFEKLKVNMEKEKD [YIL149C/MLP2], the protein stability index reads like this: (doa10∆) 3.05 ± 0.071; (pdr5∆) 3.19 ± 0.094; (san1∆) 3.33 ± 0.057; (ubr1∆) 3.23 ± 0.062.
Regarding SMNNDFQQQQQQQQQQQ [PGD1], the protein stability index is, setting by setting: (doa10∆) 2.43 ± 0.1; (pdr5∆) 2.9 ± 0.16; (san1∆) 2.54 ± 0.11; (ubr1∆) 2.29 ± 0.14.
Turning to AHFWKPVLNLDKLWTLI [RPL28], the protein stability index runs as follows: (doa10∆) 2.22 ± 0.045; (pdr5∆) 2.3 ± 0.047; (san1∆) 2.09 ± 0.071; (ubr1∆) 1.65 ± 0.032.
On to PQRCTFAFEAIDPRHLA [POP1], for which the protein stability index runs as follows: (doa10∆) 2.55 ± 0.095; (pdr5∆) 3.01 ± 0.077; (san1∆) 2.73 ± 0.087; (ubr1∆) 3.1 ± 0.051.
Take IIKANQLILSDVDPEFY [RET1]: the protein stability index is, setting by setting: (doa10∆) 1.51 ± 0.094; (pdr5∆) 1.76 ± 0.081; (san1∆) 1.6 ± 0.11; (ubr1∆) 1.96 ± 0.081.
As for LQKSSKSMITSEGEQKS [YAR002W/NUP60], the protein stability index is, setting by setting: (doa10∆) 2.84 ± 0.044; (pdr5∆) 2.97 ± 0.047; (san1∆) 2.85 ± 0.04; (ubr1∆) 3.06 ± 0.046.
In the case of GGSAKPSLKFKPKAVAR [RPC53], the protein stability index was 2.79 ± 0.11 (doa10∆), 2.7 ± 0.081 (pdr5∆), 2.44 ± 0.067 (san1∆) and 2.92 ± 0.073 (ubr1∆).
Regarding LDSDSENDLSFALMRYY [RRI2], the protein stability index (doa10∆) was determined as 2.8 ± 0.068, the protein stability index (pdr5∆) worked out at 2.89 ± 0.063, the protein stability index (san1∆) turned out to be 2.85 ± 0.057 and the protein stability index (ubr1∆) came out at 2.91 ± 0.047.
With QMAKDVTTFLNWCAEPE [CYT1], the protein stability index is, setting by setting: (doa10∆) 3.4 ± 0.068; (pdr5∆) 3.25 ± 0.067; (san1∆) 3.04 ± 0.098; (ubr1∆) 3.46 ± 0.073.
Regarding SNDEKQKAQDVDVSMQD [RPN13], the protein stability index reads like this: (doa10∆) 3.17 ± 0.091; (pdr5∆) 3.27 ± 0.064; (san1∆) 3.22 ± 0.041; (ubr1∆) 3.31 ± 0.044.
The like results for GAQIVSKQIFTHPKDTF [ARP9] were, in that order, 2.23 ± 0.069, 1.51 ± 0.051, 2.04 ± 0.067 and 1.68 ± 0.033.
As to IGIDPPRGVLLYGPPGT [RPT3], the protein stability index was found to be 3.04 ± 0.088 (doa10∆), 2.58 ± 0.1 (pdr5∆), 2.89 ± 0.081 (san1∆) and 2.74 ± 0.073 (ubr1∆).
For MGYSGWCTTCKSAENII [RET1] the same measures were 3.21 ± 0.15, 2.99 ± 0.14, 3.22 ± 0.079 and 3.19 ± 0.094.
For EEELFQEMIEISNVIKP [SRP54] the same measures were 3.04 ± 0.077, 3.28 ± 0.066, 3.34 ± 0.064 and 3.37 ± 0.13.
Consider EKLTMVFQDNVYKIYNH [SIN4], for which the protein stability index (doa10∆) came out at 2.08 ± 0.06, the protein stability index (pdr5∆) was 2.53 ± 0.053, the protein stability index (san1∆) was 1.6 ± 0.086 and the protein stability index (ubr1∆) was found to be 1.81 ± 0.037.
Turning to QARDNSQVFGVARIYAS [RPS14A], the protein stability index by setting is: (doa10∆) 1.9 ± 0.066; (pdr5∆) 2.12 ± 0.057; (san1∆) 1.84 ± 0.087; (ubr1∆) 2.23 ± 0.045.
Consider DEDLHEFQIEDAIWSLV [SRB8], for which the protein stability index stood at 3.4 ± 0.13 (doa10∆), 2.96 ± 0.086 (pdr5∆), 2.88 ± 0.14 (san1∆) and 3.3 ± 0.26 (ubr1∆).
LEIMQLVCGNDSSYQDI [RET1]: the protein stability index runs as follows: (san1∆) 3.18 ± 0.081; (ubr1∆) 2.91 ± 0.17.
For KVPIGLILQRLKDLNLT [RGR1], the protein stability index (doa10∆) was determined as 2.48 ± 0.1, the protein stability index (pdr5∆) turned out to be 2.57 ± 0.09, the protein stability index (san1∆) is 2.98 ± 0.074 and the protein stability index (ubr1∆) turned out to be 2.63 ± 0.053.
Regarding ETLENGETRMKMLNEFV [SMC2], the protein stability index (doa10∆) was 2.87 ± 0.12, the protein stability index (pdr5∆) was 3.06 ± 0.24 and the protein stability index (san1∆) was determined as 3.17 ± 0.15.
As for TFVHVTDLSGKETIARV [RPS14A], the protein stability index runs as follows: (doa10∆) 2.89 ± 0.069; (pdr5∆) 2.82 ± 0.073; (san1∆) 2.84 ± 0.05; (ubr1∆) 2.4 ± 0.055.
Take VTDDDRLWLKKVMEEEE [POP8]: the protein stability index reads like this: (doa10∆) 1.43 ± 0.066; (pdr5∆) 1.89 ± 0.07; (san1∆) 1.57 ± 0.089; (ubr1∆) 2.07 ± 0.07.
The like results for PQLTFTHVANFMNDAAA [YML103C/NUP188] were, in that order, 3.04 ± 0.094, 3 ± 0.082, 2.7 ± 0.068 and 2.95 ± 0.05.
For DICLKLNLDSEQTVEYM [RPN3] the same measures were 3.37 ± 0.23, 3.28 ± 0.2, 2.97 ± 0.24 and 3.07 ± 0.092.

The values are drawn from the supplement of paper PMC9732359.
